Here are results for seven molecules from patent US20230235058A1 (OXFORD UNIVERSITY INNOVATION, published 2023).

Assay [1] has as its target T1, human FcγR2A 131H (human, UniProt P12318 34-217).
T1 construct: extracellular domain
T1 sequence (looked up): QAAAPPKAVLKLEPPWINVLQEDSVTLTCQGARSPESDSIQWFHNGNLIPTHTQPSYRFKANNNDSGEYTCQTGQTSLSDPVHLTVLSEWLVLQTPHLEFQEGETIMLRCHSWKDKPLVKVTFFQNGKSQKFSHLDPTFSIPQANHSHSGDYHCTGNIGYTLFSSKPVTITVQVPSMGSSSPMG
Put plainly: SPR 37C, steady state; wild-type hIgG1 Fc.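 Further: fc variants captured on chip-bound human BTLA ectodomain, recombinant FcγR ectodomains injected as analyte at varied concentrations, double-referenced equilibrium binding fitted to Langmuir model.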
Procedure: (§1) For the low affinity FcγRs (FcγR2A, FcγR2B, FcγR3A and FcγR3B) the interactions were assessed by surface plasmon resonance with the recombinantly expressed FcRs (extracellular domains only) as analyte. Briefly, recombinant human BTLA extracellular domain (BTLA^K31-R151) was covalently immobilised to both flow cells of all channels of a CMS Series S sensor chip using the GE Healthcare Amine coupling kit. The 2.8.6 Fc variant to be assessed was then captured (approx. 500-1000 response units) in flow cell 2 of each channel. Steady state affinity analysis was then performed by injecting varying concentrations of FcR in multiple cycles and measuring equilibrium binding. Double referencing was used (subtracting the signal in the reference Fc1 and also subtracting the signal from a blank zero concentration injection). KDs were calculated from the Langmuir curves (plotting equilibrium binding against analyte concentration to determine the concentration required for half maximal binding).

Assay [2] concerns the target T2, human FcγR3B (human, UniProt O75015 17-200, limits assumed).
T2 construct: extracellular domain; also called CD16B
Briefly: SPR 37C, steady state; wild-type hIgG1 Fc.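 Further: fc variants captured on chip-bound human BTLA ectodomain, recombinant FcγR ectodomains injected as analyte at varied concentrations, double-referenced equilibrium binding fitted to Langmuir model.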
Procedure: as §1

The target in assay [3] is T3, human FcγR3A 158V (human, UniProt P08637 17-208).
T3 construct: extracellular domain
Put plainly: SPR 37C, steady state; wild-type hIgG1 Fc.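 Further: fc variants captured on chip-bound human BTLA ectodomain, recombinant FcγR ectodomains injected as analyte at varied concentrations, double-referenced equilibrium binding fitted to Langmuir model.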
Procedure: as §1

Assay [4] deals with T4, human FcγR2B (human, UniProt P31994 43-217).
T4 construct: extracellular domain; also called hFcγR2B; CD32B
T4 sequence (looked up): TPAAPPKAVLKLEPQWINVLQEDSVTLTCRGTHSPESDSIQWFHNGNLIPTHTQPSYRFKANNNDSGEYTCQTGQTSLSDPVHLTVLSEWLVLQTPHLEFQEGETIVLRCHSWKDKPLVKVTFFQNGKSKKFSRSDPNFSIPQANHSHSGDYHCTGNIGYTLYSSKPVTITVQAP
Put plainly: SPR 37C, steady state; wild-type hIgG1 Fc.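 Further: fc variants captured on chip-bound human BTLA ectodomain, recombinant FcγR ectodomains injected as analyte at varied concentrations, double-referenced equilibrium binding fitted to Langmuir model.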
Procedure: as §1

Assay [5] has as its target T5, human FcγR2A 131R (human, UniProt P12318 34-217).
T5 construct: extracellular domain
T5 sequence (looked up): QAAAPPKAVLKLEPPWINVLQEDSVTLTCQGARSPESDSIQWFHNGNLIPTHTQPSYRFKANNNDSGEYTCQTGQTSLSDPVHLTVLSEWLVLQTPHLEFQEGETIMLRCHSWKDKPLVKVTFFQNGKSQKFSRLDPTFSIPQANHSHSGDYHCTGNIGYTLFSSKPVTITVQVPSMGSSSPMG
Briefly: SPR 37C, steady state; wild-type hIgG1 Fc.
Procedure: as §1

Assay [6] concerns the target T6, human FcγR3A 158F (human, UniProt P08637 17-208).
T6 construct: extracellular domain
Put plainly: SPR 37C, steady state; wild-type hIgG1 Fc.
Procedure: as §1

Another assay has as its target T7, human FcRn (human, UniProt P55899 24-297; P61769 21-119, limits assumed, biotinylated).
T7 construct: bought; also called FcRn pH6
Put plainly: SPR, pH6.0. For orientation: SPR reads the build-up and loss of mass on a sensor chip optically.

Assay [7] concerns the target T8, human FcγR1A (human, UniProt P12314 16-288, biotinylated).
T8 construct: bought; also called CD64A
Briefly: SPR 37C, kinetic; wild-type hIgG1 Fc.
Procedure: (§2) For the high affinity FcR interactions (FcγR1A, and also FcRn assessed at pH6.0) the binding was assessed in a kinetic analysis with antibody as analyte. […] Reference flow cell 1 was left empty in all channels. Purified antibody was then injected at a single concentration and on/off rates calculated by curve fitting on BiaEvaluation software.

Assay [8] concerns the target T1, human FcγR2A 131H. Briefly: SPR 37C, steady state; hIgG4 P238D Fc variant.
Procedure: For the low affinity FcγRs (FcγR2A, FcγR2B, FcγR3A and FcγR3B) the interactions were assessed by surface plasmon resonance with the recombinantly expressed FcRs (extracellular domains only) as analyte. […] The 2.8.6 Fc variant to be assessed was then captured (approx. 500-1000 response units) in flow cell 2 of each channel. Steady state affinity analysis was then performed by injecting varying concentrations of FcR in multiple cycles and measuring equilibrium binding. Double referencing was used (subtracting the signal in the reference Fc1 and also subtracting the signal from a blank zero concentration injection). KDs were calculated from the Langmuir curves (plotting equilibrium binding against analyte concentration to determine the concentration required for half maximal binding).
For assay [9], the target named is T4, human FcγR2B. Briefly: SPR 37C, steady state.
Assay [10] deals with T5, human FcγR2A 131R. Briefly: SPR 37C, steady state.
For assay [11], the target named is T1, human FcγR2A 131H. Briefly: SPR 37C, steady state; hIgG1 P238D G237D P271G A330R (V9) Fc variant.
Procedure: as §1
The target of assay [12] is T2, human FcγR3B. Described as above.
Procedure: as §1
For assay [13], the target named is T3, human FcγR3A 158V. The description is as above.
Procedure: as §1
The target of assay [14] is T4, human FcγR2B. Described as above.
Procedure: as §1
Assay [15] has as its target T5, human FcγR2A 131R. The description is as above.
Procedure: as §1
Assay [16] concerns the target T6, human FcγR3A 158F. The description is as above.
Procedure: as §1
Assay [17] addresses T8, human FcγR1A. Briefly: SPR 37C, kinetic; hIgG1 P238D G237D P271G A330R (V9) Fc variant.
Procedure: For the high affinity FcR interactions (FcγR1A, and also FcRn assessed at pH6.0) the binding was assessed in a kinetic analysis with antibody as analyte. […] Reference flow cell 1 was left empty in all channels. Purified antibody was then injected at a single concentration and on/off rates calculated by curve fitting on BiaEvaluation software. […] IgG Fc has two binding sites for FcRn so this assessment performed with FcRn immobilised at high density provides an avidity estimate for the interaction rather than a true KD.
The target in assay [18] is T4, human FcγR2B. Put plainly: SPR (Example 23).
Procedure: as §1
Assay [19] concerns the target T8, human FcγR1A. Put plainly: SPR 37C, kinetic.
Procedure: as §2
Assay [20] concerns the target T4, human FcγR2B. Briefly: SPR 37C, steady state; hIgG1 D265A G236D Fc variant.
Procedure: as §1
Assay [21] concerns the target T1, human FcγR2A 131H. Put plainly: SPR 37C, steady state.
Assay [22] concerns the target T2, human FcγR3B. Briefly: SPR 37C, steady state.
In assay [23] the target is T3, human FcγR3A 158V. Briefly: SPR 37C, steady state.
Assay [24] addresses T6, human FcγR3A 158F. Put plainly: SPR 37C, steady state.
Assay [25] addresses T2, human FcγR3B. Put plainly: SPR 37C, steady state; hIgG1 D265A A330R Fc variant.
Procedure: as §1
Assay [26] has as its target T2, human FcγR3B. Briefly: SPR 37C, steady state; hIgG1 D265A Fc variant.
Procedure: as §1
Assay [27] has as its target T6, human FcγR3A 158F. Briefly: SPR 37C, steady state; hIgG1 D265A Fc variant.
Procedure: as §1
Assay [28] addresses T8, human FcγR1A. Briefly: SPR 37C, kinetic; hIgG1 D265A Fc variant.
Procedure: as §2
In assay [29] the target is T8, human FcγR1A. Briefly: SPR 37C, kinetic; hIgG1 D265A S267E Fc variant.
Procedure: as §2

T7 sequence (P55899 24-297 limits assumed, chain 1 of 2): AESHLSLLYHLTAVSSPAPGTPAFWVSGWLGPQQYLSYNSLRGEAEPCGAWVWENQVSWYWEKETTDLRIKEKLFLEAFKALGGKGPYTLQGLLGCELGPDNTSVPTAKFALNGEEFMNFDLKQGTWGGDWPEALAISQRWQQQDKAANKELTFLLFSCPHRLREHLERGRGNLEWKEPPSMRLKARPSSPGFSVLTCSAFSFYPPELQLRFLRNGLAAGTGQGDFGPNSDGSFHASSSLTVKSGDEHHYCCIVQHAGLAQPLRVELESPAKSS
T7 sequence (P61769 21-119 limits assumed, chain 2 of 2): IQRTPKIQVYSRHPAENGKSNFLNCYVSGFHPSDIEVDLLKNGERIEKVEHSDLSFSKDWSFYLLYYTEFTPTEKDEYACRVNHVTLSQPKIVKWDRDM
T6 sequence (P08637 17-208): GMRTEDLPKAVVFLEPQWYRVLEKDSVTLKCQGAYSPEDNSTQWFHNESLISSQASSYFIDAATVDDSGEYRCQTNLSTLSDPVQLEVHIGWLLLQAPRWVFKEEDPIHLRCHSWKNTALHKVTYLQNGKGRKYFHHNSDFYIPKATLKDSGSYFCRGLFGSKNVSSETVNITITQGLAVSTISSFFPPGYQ
T2 sequence (O75015 17-200 limits assumed): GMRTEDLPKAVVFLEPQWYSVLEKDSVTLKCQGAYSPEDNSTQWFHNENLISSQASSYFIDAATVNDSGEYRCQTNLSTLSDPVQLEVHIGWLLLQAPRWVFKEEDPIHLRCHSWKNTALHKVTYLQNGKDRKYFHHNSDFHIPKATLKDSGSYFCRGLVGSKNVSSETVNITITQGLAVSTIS
T8 sequence (P12314 16-288): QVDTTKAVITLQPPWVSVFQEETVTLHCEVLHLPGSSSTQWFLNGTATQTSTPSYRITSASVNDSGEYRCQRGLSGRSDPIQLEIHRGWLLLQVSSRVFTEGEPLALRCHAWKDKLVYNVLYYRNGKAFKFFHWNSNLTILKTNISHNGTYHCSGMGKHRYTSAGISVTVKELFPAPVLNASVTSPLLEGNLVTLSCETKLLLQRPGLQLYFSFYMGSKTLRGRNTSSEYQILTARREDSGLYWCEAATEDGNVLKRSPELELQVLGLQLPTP
T3 sequence (P08637 17-208 F176V): as the sequence (P08637 17-208) above, with F160V counted along it

B1: humanised 2.8.6 hIgG1 (antibody)
heavy: not shown
VL: EIVLTQSPATLSLSPGERATLSCRASSSVSYMHWYQQKPGQAPRPLIYATSNRATGIPARFSGSGSGTDYTLTISSLEPEDFAVYYCHQWSSNPYTFGQGTKLEIKRTVAAPSVFIFPPSDEQLKSGTASVVCLLNNFYPREAKVQWKVDNALQSGNSQESVTEQDSKDSTYSLSSTLTLSKADYEKHKVYACEVTHQGLSSPVTKSFNRGEC
notes: Fc variant with the variable domains of humanised 2.8.6; not shown: human IgG1 heavy chain constant region; copies: 2 + 2
Turning to B1, the Kd (as a rule, the constant that tells how readily two partners part at equilibrium) is 1.98 µM in the assay with human FcγR2A 131H [1]; 22.9 µM with human FcγR3B [2]; 2.78 µM with human FcγR3A 158V [3]; 8.65 µM with human FcγR2B [4]; 1.57 µM in the assay with human FcγR2A 131R [5]; 9.37 µM with human FcγR3A 158F [6]. This molecule gave a Kd with human FcγR1A [7] of 0.00375 µM. The “avidity (FcRn pH6)” value in the assay with human FcRn was found to be 4.58 nM.

B2: humanised 2.8.6 hIgG4 P238D (antibody)
heavy: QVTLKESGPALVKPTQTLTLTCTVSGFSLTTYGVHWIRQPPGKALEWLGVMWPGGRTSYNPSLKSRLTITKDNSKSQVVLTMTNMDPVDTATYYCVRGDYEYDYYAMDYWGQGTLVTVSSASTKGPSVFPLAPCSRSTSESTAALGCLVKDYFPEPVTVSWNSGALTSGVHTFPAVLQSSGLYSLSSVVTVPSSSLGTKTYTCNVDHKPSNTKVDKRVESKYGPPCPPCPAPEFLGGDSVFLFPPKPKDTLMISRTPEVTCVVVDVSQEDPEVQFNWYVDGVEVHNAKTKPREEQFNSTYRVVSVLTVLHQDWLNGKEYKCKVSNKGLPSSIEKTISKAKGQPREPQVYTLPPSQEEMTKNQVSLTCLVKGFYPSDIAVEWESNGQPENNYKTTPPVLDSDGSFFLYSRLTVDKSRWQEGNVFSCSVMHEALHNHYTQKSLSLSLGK
VL: EIVLTQSPATLSLSPGERATLSCRASSSVSYMHWYQQKPGQAPRPLIYATSNRATGIPARFSGSGSGTDYTLTISSLEPEDFAVYYCHQWSSNPYTFGQGTKLEIKRTVAAPSVFIFPPSDEQLKSGTASVVCLLNNFYPREAKVQWKVDNALQSGNSQESVTEQDSKDSTYSLSSTLTLSKADYEKHKVYACEVTHQGLSSPVTKSFNRGEC
notes: Fc variant with the variable domains of humanised 2.8.6; not shown: human IgG4 heavy chain constant region; copies: 2 + 2
For B2, the values for the Kd with human FcγR2A 131H [8], with human FcγR2B [9] and in the assay with human FcγR2A 131R [10] were 312 µM, 17.5 µM and 47.9 µM, respectively.

B3: humanised 2.8.6 hIgG1 P238D G237D P271G A330R (V9) (antibody)
heavy: QVTLKESGPALVKPTQTLTLTCTVSGFSLTTYGVHWIRQPPGKALEWLGVMWPGGRTSYNPSLKSRLTITKDNSKSQVVLTMTNMDPVDTATYYCVRGDYEYDYYAMDYWGQGTLVTVSSASTKGPSVFPLAPSSKSTSGGTAALGCLVKDYFPEPVTVSWNSGALTSGVHTFPAVLQSSGLYSLSSVVTVPSSSLGTQTYICNVNHKPSNTKVDKKVEPKSCDKTHTCPPCPAPELLGDDSVFLFPPKPKDTLMISRTPEVTCVVVDVSHEDGEVKFNWYVDGVEVHNAKTKPREEQYNSTYRVVSVLTVLHQDWLNGKEYKCKVSNKALPRPIEKTISKAKGQPREPQVYTLPPSREEMTKNQVSLTCLVKGFYPSDIAVEWESNGQPENNYKTTPPVLDSDGSFFLYSKLTVDKSRWQQGNVFSCSVMHEALHNHYTQKSLSLSPGK
light: EIVLTQSPATLSLSPGERATLSCRASSSVSYMHWYQQKPGQAPRPLIYATSNRATGIPARFSGSGSGTDYTLTISSLEPEDFAVYYCHQWSSNPYTFGQGTKLEIKRTVAAPSVFIFPPSDEQLKSGTASVVCLLNNFYPREAKVQWKVDNALQSGNSQESVTEQDSKDSTYSLSSTLTLSKADYEKHKVYACEVTHQGLSSPVTKSFNRGEC
notes: Fc variant with the variable domains of humanised 2.8.6; also called 2.8.6 hIgG1 V9; hIgG1 V9 isotype; copies: 2 + 2
As to B3, the Kd in the assay with human FcγR2A 131H [11] is 26.2 µM; with human FcγR3B [12], 6090 µM; with human FcγR3A 158V [13], 321 µM; in the assay with human FcγR2B [14], 0.173 µM; with human FcγR2A 131R [15] it was 1.84 µM; in the assay with human FcγR3A 158F [16], 216 µM. Further, binding with human FcγR1A [17] was put at a Kd of 0.697 µM. For the same molecule, the “avidity (FcRn pH6)” value with human FcRn stood at 1.98 nM. In addition, the “fold higher affinity than the P238D isotype” value with human FcγR2B [18] is approximately 30 fold.

B4: humanised 2.8.6 hIgG1 D265A G236D (antibody)
heavy: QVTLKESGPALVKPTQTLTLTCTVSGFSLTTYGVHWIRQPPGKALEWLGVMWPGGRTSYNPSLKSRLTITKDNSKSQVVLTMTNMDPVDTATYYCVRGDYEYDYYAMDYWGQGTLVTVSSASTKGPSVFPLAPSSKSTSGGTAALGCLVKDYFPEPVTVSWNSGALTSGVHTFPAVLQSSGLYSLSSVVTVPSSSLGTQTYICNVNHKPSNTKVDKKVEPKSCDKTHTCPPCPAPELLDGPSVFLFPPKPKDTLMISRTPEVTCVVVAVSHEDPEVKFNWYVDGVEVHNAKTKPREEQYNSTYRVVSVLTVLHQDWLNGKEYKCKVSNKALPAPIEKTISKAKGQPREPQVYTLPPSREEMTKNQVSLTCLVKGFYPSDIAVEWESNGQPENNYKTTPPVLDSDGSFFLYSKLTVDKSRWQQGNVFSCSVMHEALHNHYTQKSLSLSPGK
light: EIVLTQSPATLSLSPGERATLSCRASSSVSYMHWYQQKPGQAPRPLIYATSNRATGIPARFSGSGSGTDYTLTISSLEPEDFAVYYCHQWSSNPYTFGQGTKLEIKRTVAAPSVFIFPPSDEQLKSGTASVVCLLNNFYPREAKVQWKVDNALQSGNSQESVTEQDSKDSTYSLSSTLTLSKADYEKHKVYACEVTHQGLSSPVTKSFNRGEC
notes: Fc variant with the variable domains of humanised 2.8.6; copies: 2 + 2
For the molecule B4, the binding result with human FcγR1A [19], in the assay with human FcγR2A 131H [21], with human FcγR3B [22], with human FcγR3A 158V [23] and with human FcγR3A 158F [24] was “no binding” in each case. The figures for the Kd with human FcγR2B [20] and with human FcγR2A 131R [10] were 748 µM and 91.4 µM, respectively. In addition, in the assay with human FcRn, the “avidity (FcRn pH6)” value was 14 nM.

B5: humanised 2.8.6 hIgG1 D265A A330R (antibody)
heavy: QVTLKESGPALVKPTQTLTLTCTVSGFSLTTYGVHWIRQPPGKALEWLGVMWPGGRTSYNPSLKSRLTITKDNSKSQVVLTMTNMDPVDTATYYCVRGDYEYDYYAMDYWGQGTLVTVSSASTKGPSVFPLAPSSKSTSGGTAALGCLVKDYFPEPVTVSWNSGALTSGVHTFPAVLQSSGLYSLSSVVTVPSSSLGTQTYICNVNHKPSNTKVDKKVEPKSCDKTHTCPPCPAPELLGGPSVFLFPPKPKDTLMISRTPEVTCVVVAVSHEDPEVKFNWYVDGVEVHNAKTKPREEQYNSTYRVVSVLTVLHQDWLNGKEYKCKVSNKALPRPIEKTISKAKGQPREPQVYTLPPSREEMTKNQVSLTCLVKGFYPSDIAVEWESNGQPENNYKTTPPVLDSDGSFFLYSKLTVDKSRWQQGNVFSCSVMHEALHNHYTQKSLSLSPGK
light: EIVLTQSPATLSLSPGERATLSCRASSSVSYMHWYQQKPGQAPRPLIYATSNRATGIPARFSGSGSGTDYTLTISSLEPEDFAVYYCHQWSSNPYTFGQGTKLEIKRTVAAPSVFIFPPSDEQLKSGTASVVCLLNNFYPREAKVQWKVDNALQSGNSQESVTEQDSKDSTYSLSSTLTLSKADYEKHKVYACEVTHQGLSSPVTKSFNRGEC
notes: as for B4
Regarding B5, the Kd with human FcγR3B [25] was determined as 9100 µM; with human FcγR2A 131H [21] it was 39.4 µM; with human FcγR2B [9], 347 µM; in the assay with human FcγR2A 131R [10] it was 67 µM. For the same molecule, the binding result with human FcγR3A 158V [23] and with human FcγR3A 158F [24] was “no binding” each time.

B6: humanised 2.8.6 hIgG1 D265A (antibody)
heavy: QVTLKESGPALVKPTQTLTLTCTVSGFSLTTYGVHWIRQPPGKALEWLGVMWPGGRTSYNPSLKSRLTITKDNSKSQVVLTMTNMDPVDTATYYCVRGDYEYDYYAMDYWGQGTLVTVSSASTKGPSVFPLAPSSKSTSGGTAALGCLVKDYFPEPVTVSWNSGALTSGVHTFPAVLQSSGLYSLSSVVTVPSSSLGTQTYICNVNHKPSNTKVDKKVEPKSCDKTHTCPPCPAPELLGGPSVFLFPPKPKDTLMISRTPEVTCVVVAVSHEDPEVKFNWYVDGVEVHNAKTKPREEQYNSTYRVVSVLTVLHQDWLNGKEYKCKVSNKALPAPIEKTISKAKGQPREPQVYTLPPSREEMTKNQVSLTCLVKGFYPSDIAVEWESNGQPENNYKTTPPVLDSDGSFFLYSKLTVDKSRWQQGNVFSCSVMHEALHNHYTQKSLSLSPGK
light: EIVLTQSPATLSLSPGERATLSCRASSSVSYMHWYQQKPGQAPRPLIYATSNRATGIPARFSGSGSGTDYTLTISSLEPEDFAVYYCHQWSSNPYTFGQGTKLEIKRTVAAPSVFIFPPSDEQLKSGTASVVCLLNNFYPREAKVQWKVDNALQSGNSQESVTEQDSKDSTYSLSSTLTLSKADYEKHKVYACEVTHQGLSSPVTKSFNRGEC
notes: as for B4
As to B6, the dissociation constant (Kd) stood at 5200 µM with human FcγR3B [26]; 1490 µM with human FcγR3A 158F [27]; 0.497 µM with human FcγR1A [28]; 40.1 µM in the assay with human FcγR2A 131H [21]; 193 µM with human FcγR2B [9]; 48.3 µM with human FcγR2A 131R [10]. Further, in the assay with human FcRn, the “avidity (FcRn pH6)” value amounted to 12 nM. The binding result with human FcγR3A 158V [23] was “no binding”.

B7: humanised 2.8.6 hIgG1 D265A S267E (antibody)
heavy: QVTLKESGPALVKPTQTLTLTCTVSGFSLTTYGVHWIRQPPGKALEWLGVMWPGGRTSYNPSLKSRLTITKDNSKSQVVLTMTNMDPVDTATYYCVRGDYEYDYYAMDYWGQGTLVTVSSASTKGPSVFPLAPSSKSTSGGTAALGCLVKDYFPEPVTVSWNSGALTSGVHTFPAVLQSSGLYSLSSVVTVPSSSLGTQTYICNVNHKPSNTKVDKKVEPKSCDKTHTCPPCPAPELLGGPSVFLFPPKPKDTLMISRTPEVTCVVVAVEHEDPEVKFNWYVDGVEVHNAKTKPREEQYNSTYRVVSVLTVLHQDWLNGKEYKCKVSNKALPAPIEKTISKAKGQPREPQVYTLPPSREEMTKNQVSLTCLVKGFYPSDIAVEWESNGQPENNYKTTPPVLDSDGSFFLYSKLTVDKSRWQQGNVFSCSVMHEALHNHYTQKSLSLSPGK
light: EIVLTQSPATLSLSPGERATLSCRASSSVSYMHWYQQKPGQAPRPLIYATSNRATGIPARFSGSGSGTDYTLTISSLEPEDFAVYYCHQWSSNPYTFGQGTKLEIKRTVAAPSVFIFPPSDEQLKSGTASVVCLLNNFYPREAKVQWKVDNALQSGNSQESVTEQDSKDSTYSLSSTLTLSKADYEKHKVYACEVTHQGLSSPVTKSFNRGEC
notes: as for B4
For B7, the Kd with human FcγR1A [29] turned out to be 0.415 µM; with human FcγR2A 131H [21], 173 µM; with human FcγR2B [9] it was 157 µM; with human FcγR2A 131R [10], 26.7 µM. For the same molecule, the “avidity (FcRn pH6)” value with human FcRn was determined as 11.9 nM. For the same molecule, the binding result with human FcγR3B [22], with human FcγR3A 158V [23] and in the assay with human FcγR3A 158F [24] was “no binding” throughout.
